Measured values from publication PMC8486240.

Columns and labels:
PpbHLH1 [1] = molecular target: T1, PpbHLH1 (Prunus persica, UniProt M5W438 1-344); assay: competition
PpbHLH1 [2] = molecular target: T1, PpbHLH1; assay: EMSA

Binder | binding result (PpbHLH1 [1]) | binding result (PpbHLH1 [2])
Probe1 unlabelled (cold competitor) (dsDNA) DNA 1: TGAAATGATGATAAGCACATGGATATATGGCCTGGAAAAC DNA 2: GTTTTCCAGGCCATATATCCATGTGCTTATCATCATTTCA | binds | –
Mutant-Probe1 (dsDNA) DNA 1: TGAAATGATGATAAGAGTGGAGATATATGGCCTGGAAAAC DNA 2: GTTTTCCAGGCCATATATCTCCACTCTTATCATCATTTCA | – | no binding
